# Measured values as given in US12098198 (ABION, dated 2024).
# T1: human claudin 3 (human, UniProt O15551 1-220)
# T1 construct: cell lysate in the immunoprecipitation; also called CLDN3; hCLDN3
# T1 sequence: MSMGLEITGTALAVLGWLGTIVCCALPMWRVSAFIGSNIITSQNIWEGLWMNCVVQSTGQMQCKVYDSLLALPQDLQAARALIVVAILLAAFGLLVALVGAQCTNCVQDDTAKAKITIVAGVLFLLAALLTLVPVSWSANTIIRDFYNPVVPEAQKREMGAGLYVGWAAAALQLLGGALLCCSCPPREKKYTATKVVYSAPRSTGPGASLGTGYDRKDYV
# B1: 4G3 IgG antibody (antibody, V domains shown)
# VH: EVQLLESGGGLVQPGGSLRLSCAASGFTFSSYAMSWVRQAPGKGLEWVSIINPSGASTSHAQRFQGRFTISRDNSKNTLYLQMNSLRAEDTAVYYCARYGRYGSFDIWGQGTLVTVSS
# VL: QSVLTQPPSASGTPGQRVTISCSGSTSNIGRNYVSWYQQLPGTAPKLLIYDTSNKHFGVPDRFSGSKSGTSASLAISGLRSEDEADYYCQSYDSSKVVFGGGTKLTVL
# Experiments:
# human claudin 3 [1] = biological target: T1, human claudin 3; assay: LigandTracer Green, FITC-conjugated antibody on hCLDN3/HEK293 cells against HEK293, 1:1 two state model
# human claudin 3 [2] = biological target: T1, human claudin 3; assay: LigandTracer Green, FITC-conjugated antibody on hCLDN3/HEK293 cells against HEK293, 1:1 two state model (kd1)
# human claudin 3 [3] = biological target: T1, human claudin 3; assay: LigandTracer Green, FITC-conjugated antibody on hCLDN3/TOV-112D cells against TOV-112D, 1:1 two state model (kd1)
# human claudin 3 [4] = biological target: T1, human claudin 3; assay: LigandTracer Green, FITC-conjugated antibody on hCLDN3/TOV-112D cells against TOV-112D, 1:1 two state model
# human claudin 3 [5] = biological target: T1, human claudin 3; assay: LigandTracer Green, FITC-conjugated antibody on hCLDN3/HEK293 cells against HEK293, 1:1 two state model (ka1)
# human claudin 3 [6] = biological target: T1, human claudin 3; assay: LigandTracer Green, FITC-conjugated antibody on hCLDN3/TOV-112D cells against TOV-112D, 1:1 two state model (ka1)
binder,measurement,setting,value
B1,Kd,human claudin 3 [1],4.03 nM
same,koff,human claudin 3 [2],0.000671 s⁻¹
same,koff,human claudin 3 [3],0.000337 s⁻¹
same,Kd,human claudin 3 [4],2.35 nM
same,kon,human claudin 3 [5],46600 M⁻¹ s⁻¹
same,kon,human claudin 3 [6],47400 M⁻¹ s⁻¹
